Measured values taken from the DeepSol protein solubility set.

test: soluble on expression in E. coli; label from the status in PepcDB or PDB records

Sequence	soluble on expression in E. coli
MAKKKTKFTCQECGYQSPKYMGKCPGCGQWNSLVEEMEPVVSSRRLNYANAIQTEVTKPRRLTEVETKSEARIETKFQEFNRVLGGGIVDGSLVLIGGDPGIGKSTLLLQISSQLADASYDVLYISGEESAKQIKLRADRLHVNGSNLFVVSETDLQRIAAHIEEMNPAFVVIDSIQTIHLPEVTSAPGSVAQVRECTAELMKLAKTKGIPIFIVGHVTKEGAIAGPRMLEHMVDAVLYFEGDRHHTYRILRAVKNRFGSTNEMGIFEMKELGLAEVLNPSEIFLEERPVGVAGSTVVASMEGTRPVLVEIQALISPTSFGNPRRMATGIDHNRVSLIMAVLEKRTGLLLQNQDAYLKVAGGLKLDEPAIDLAVALSIASSFRDKSTAPTDAVIGEVGLTGEIRRVSRIEQRVQEAAKLGFQRAIIPRKNLGGWTIPEGIEVVGVSNLGEALRLTLGG	not soluble
MAKKNNKTKIQKPEAALQTDVAQITATGRVIAEHPSNFITPQKMRALFEDAESGDIRAQHELFADIEERDSDIAANMGTRKRALLTLNWRVAPPRNATPEEEKLSDQAYEMMDSLPTLEDLIMDLMDAVGHGFSALEVEWVFSDGLYLPRNFIHRPQSWFKWDKDNGLLLRTRENPEGEALWPLGWVVHTQKSRSVQQARNGLFRTLSWLYMFKHYAVHDFAEFLELYGMPIRIGKYGAGATKEEKNTLLRAVAEIGHNAAGIMPEGMEIELHNAANGTTATSNPFLQMADWCEKSAARLILGQTLTSGADGKSSTNALGNIHNEVRRDLLVSDAKQVAQTITSQIIGPFLQINYPHADPNRVPKFEFDTREPKDIAVFADAIPKLVDVGVQIPESWVRDKLVIPDVQEGEAVLVRQVPDNPVNRTALAALSAHTVPSKATGRHQEILDGALDDALVEPDFNSQLNPMVRQAVAALNACNSYEEADAALNALYPNLDNAKLRTYMQQALFISDILGQDHARA	not soluble
MAKKTKQRRPMGFPPGPPGLPFIGNIYSLAASSELPHVYMRKQSQVYGEIFSLDLGGISTVVLNGYDVVKECLVHQSEIFADRPCLPLFMKMTKMGGLLNSRYGRGWVDHRRLAVNSFRYFGYGQKSFESKILEETKFFNDAIETYKGRPFDFKQLITNAVSNITNLIIFGERFTYEDTDFQHMIELFSENVELAASASVFLYNAFPWIGILPFGKHQQLFRNAAVVYDFLSRLIEKASVNRKPQLPQHFVDAYLDEMDQGKNDPSSTFSKENLIFSVGELIIAGTETTTNVLRWAILFMALYPNIQGQVQKEIDLIMGPNGKPSWDDKCKMPYTEAVLHEVLRFCNIVPLGIFHATSEDAVVRGYSIPKGTTVITNLYSVHFDEKYWRDPEVFHPERFLDSSGYFAKKEALVPFSLGRRHCLGEHLARMEMFLFFTALLQRFHLHFPHELVPDLKPRLGMTLQPQPYLICAERRHHHHHH	soluble
MAKLDFHIVKRIREQIANGGTRVALKHKVAGAWQGITWEQFGQQVDTLSLALLAQGLGVQDKIGIFSNNMPQWTIADFAALQLRGVTVPIYPTNTAAQSAYIIDNADVKVLFVGEQPQFDAAVSIFEQCEQLELIVAMSDDIELGDHDFAISWKDFVAKGDTSHQAELDERLEQAKVDDLLTLIYTSGTTGQPKGVMLDYGNIAAQLEGHDQRLSLSQDDVSLCFLPLSHVFERAWTFYVLYKGATNCYLQDTMQVRDALSEVRPTVMCAVPRFYEKIFSAIHEKVSRAPIHRKIMFTWAVNMGAKMALCHQEKRKPSMMLRKAHA	not soluble
MAKQELSAREAVTEAKCYLNNAKEILREKGAKTEGYYRDSKYVKMAGDTAYSGVLFVLDHYFGEKAKGRKDVDWYRINLSKEDRKMLDSFTAVYEQLHL	not soluble
MAKRIKNTTPKQDGFRMPGEFEKQKQIWMLWPWRNDNWRLGAKPAQKAFLEVAEAISEFEPVSLCVPPLQYENALARVSELGSHNIRIIEMTNDDAWIRDCGPTFLVNDKGDLRAVDWEFNAWGGLVDGLYFPWDQDALVARKVCEIEGVDSYKTKDFVLEGGSIHVDGEGTVLVTEMCLLHPSRNPHLTKEDIEDKLKDYLNCVKVLWVKDGIDPYETNGHIDDVACFIRPGEVACIYTDDKEHPFYQEAKAAYDFLSQQTDAKGRPLKVHKMCVTKEPCYLQEAATIDYVEGSIPREEGEMAIASYLNFLIVNGGIILPQYGDENDQLAKQQVQEMFPDRKVVGVRTEEIAYGGGNIHCITQQQPATLEHHHHHH	soluble
MAKRVFIGATGQNCGKTTMSVSLMHLARQKYDRVGFIKPIGPKIEGYNGLTVDMDAILMARTFGLEEDLPLMNPVSLHKNFTRDFLSGKLDCNVLKTKILEAFEILDKKYDFLIIEGAGHGGVGSVIGLSNACVAHTLNAPVIIVTDSGIGSSIDAVHLNLALYEKEDADVRMLLVNKLRADKRESILSFLGKGFPGRPLKISGGFNYSPILANPTLSHIGKLLNLPVHGDPDGQSRIIHHIHLGAASAQRVVDALQESTLIVITSSRDELIVTLSSLYHIPAFREKIVGLVIAGHIPASEISQQILDDSNIPYIRVHDSTANVFTTLMEDVAKITAEDQEKLNWIRANAENEIDFEAIDALLLEHHHHHH	not soluble
MAKRVVSVSLGSSRRDAAAEVELLGERVLLERRGTDGDFQRALCLIQELDGKVDAIGLGGIDLYLFAGGRRYAIRDALRLKEAAKKTPVVDGSGLKHTLERRAVRELASLIDWRKTKVLLPSAVDRFGLAEALDEAGARVLYGDFIFALGLPIPLYSLSFLQKLAFLLLPLFTRLPFSVLYPTGKKQEEVREDWRARYYAWADVVAGDWHYVRRHMPKDMRGKTVITNTTTEEDVAFLRERGVRRLVTTTPRLGGRSFGTNVMEAMLVALAGRELGEADYLRYIDQIGLKPQVLELKGQA	soluble
MAKTLKTLYQCTECGGTSPKWQGKCPHCGEWNTLQESLAAPEPKNARFQSWAADTSTVQSLSAVTATEVPRNPTGMGELDRVLGGGLVDGAVILLGGDPGIGKSTLLLQTIAKMAQSRKVLYVSGEESAQQVALRAQRLELPTDGVNLLAEIRMEAIQAALKQHQPEVVVIDSIQTMYSDQITSAPGSVSQVRECAAQLTRMAKQMGIAMILVGHVTKDGAIAGPRVLEHMVDTVLYFEGDQHSNYRMIRAIKNRFGAANELGVFAMTENGLKGVSNPSAIFLASYRDDTPGSCVLVTQEGSRPLLVEIQALVDDAHGFTPKRLTVGLEQNRLAMLLAVLNRHGGIACFDQDVFLNAVGGV	not soluble
MAKVLVLGGGIGGTEAAIALRKEGFEVSLVSDKPYLYIYPISIWIPTGEAKFEDVIIPLDKFARRWGVNLIIDRVEKIDAQNKKVHLKSGKVLEDFDYLVVALGQTKRKEKGLENTLSICGSPEEALKIRDRLVELIAKGEGKIAFGFGGNPKDKTAVRGRPVFEVLFNVDYHLSRLGIRDRFELTFFAPMPKPGERLGEKALKMLDQMFQKYGIKKITGKKIKEFKENGVLFEDDTFLESDLIIYTPAGWGNPVFADSGFPLNEAGFIKIEETCQVVGYEWAYAIGDSAAIEGPPWTAKQGHLAEVMGHITAHNIAVKEGKKSGELKSYKEHINILCLMDMGWRGGGFAYRSDKRAMLIPIPVLGHIMKKAWGVYYKLYKLGKIPKII	not soluble
MALAVRKQLLYELIDRLDETDHQTAYDFLMYLLDRSRKERMVWERIDETDEEEALTEEERQQLQSDEGYITGGEAKREFGLQVDLP	not soluble
